Laboratory results as given in article PMC4070910, “Cathepsin S Signals via PAR2 and Generates a Novel Tethered Ligand Receptor Agonist” (PLoS ONE, 2014).
“Also recorded” adds a separate entry of the source.

How the values were obtained:
cathepsin S = assay: Cathepsin S digestion of the human PAR2 N-terminal peptide (LC/MS/MS); assay type: biochemical; settings: cathepsin S 1 µM, pH 7.0, 37°C, 20 minutes; MS/MS sequencing
Method: Recombinant human cathepsin S was produced as follows. The human cathepsin S proprotein coding region was isolated by PCR using the forward and reverse primers […] CCTG and […] and a template of plasmid DNA containing the entire coding sequence of human cathepsin S. The PCR product was cut with Nco I and Xho I, and cloned into the pTYB4 expression vector from New England Biolabs for expression in E.coli. Cells were grown in LB medium induced with 0.3 mM IPTG, harvested by centrifugation, resuspended in lysis buffer A (0.5 M NaCl, 0.05 M Tris, 5 mM EDTA, pH 8.0) and lysed in a French press. The lysate was centrifuged and the protein was found predominantly in inclusion bodies which were dissolved in buffer B (10 mM DTT and 8 M urea), and refolded in the presence of buffer B containing 0.7 M L-arginine, 0.01 M glutathione, 0.001 M glutathione disulfide, and 0.005 M EDTA as described. […] The specific activity of cathepsin S was assayed using Z-VVR-AMC in fluorimetric and Z-FR-pNA in colorimetric assays[22] and determined to be 10,000 mU/mg protein.
A peptide comprising the N-terminus of PAR2, […], was dissolved in 50 mM Tris, pH 7.0, 0.1 M NaCl, 0.1 mM EDTA, and 0.01% Tween-20 to a concentration of 100 mM. […] The reaction samples were analyzed by the Harvard Microchemistry & Proteomics Analysis Facility (Cambridge, MA). […]

[1] = tested on: NHEKs which endogenously express PAR2; assay: Calcium imaging in normal human epidermal keratinocytes (NHEKs); assay type: cell-based
Description: HeLa cells were obtained from the ATCC and maintained in DMEM supplemented with fetal bovine serum (Fisher Biochemicals), L-glutamine, penicillin and streptomycin. Normal human epidermal keratinocytes (NHEKs) were harvested from neonatal foreskin and maintained in Keratinocyte Serum-Free media supplemented with epidermal growth factor, bovine pituitary extract, L-glutamine, penicillin and streptomycin. All reagents were obtained from Invitrogen unless otherwise noted.
Human PAR2 cDNA was cloned as an Xho I-Hind III fragment (1206 bp) into pcDNA3.1(−). 10 µg of DNA were diluted into 0.5 ml of DMEM and mixed with 0.5 ml of DMEM containing 10 µl of Lipofectamine 2000 transfection reagent and incubated at room temperature for 20 minutes. HeLa cells were grown to confluence, trypsinized and 1×10^6 cells were pelleted in a 15 ml tube by centrifugation at 1000 rpm for 5 minutes. The DMEM-Lipofectamine 2000-DNA mixture (1 ml) was added to the cell pellet, resuspended gently and incubated at room temperature for 20 minutes. Four ml of complete DMEM with 10% FBS were added to the tube, mixed by inverting the tube several times, plated into a 96-well glass bottom plate at 20,000 cells/well, and placed in a 37°C CO2 incubator. HeLa cells transfected with vector alone or salmon sperm DNA (shown in the figures) were plated as a control. The medium was aspirated two days after transfection. Fura-2 was used as a ratiometric calcium-sensitive indicator as follows. 100 µl of complete DMEM containing 2 µM of Fura-2 were added to each well and left at room temperature in the dark for 1 hr. […]
Imaging was performed using a Zeiss Axiovert 200 M microscope platform equipped with a flipping filter wheel for ratiometric imaging. […] The software later analyzed all images taken during each excitation period. Typically, ratiometric changes were measured in 10–20 cells in each image. An average of the fluorescence of the cells in each image was calculated and plotted against time in seconds.

B1: cathepsin S: Recombinant human cathepsin S, cysteine protease, expressed in E.coli, refolded and activated (protein, UniProt P25774 115-331, looked up)
Cathepsin S: LPDSVDWREKGCVTEVKYQGSCGACWAFSAVGALEAQLKLKTGKLVSLSAQNLVDCSTEKYGNKGCNGGFMTTAFQYIIDNKGIDSDASYPYKAMDQKCQYDSKYRAATCSKYTELPYGREDVLKEAVANKGPVSVGVDARHPSFFLYRSGVYYEPSCTQNVNHGVLVVGYGDLNGKEYWLVKNSWGHNFGEEGYIRMARNKGNHCGIASFPSYPEI
With B1 the “cleavage points (in words)” value (cathepsin S) was “resulted in several cleavage points; also recorded: most frequent after glycine followed by leucine”, the “calcium response in NHEKs (in words)” value ([1]; KVDGTS 100 µM, cathepsin S 2 µM) was “activated NHEKs” and the “calcium response to the substance as second agent after KVDGTS (in words)” value ([1]; NHEKs, KVDGTS 100 µM then cathepsin S 2 µM, second agent at 300 s) was “attenuated”. For the same molecule, the “effect as first agent on calcium response to second agent (in words)” value ([1]; NHEKs, KVDGTS 100 µM, cathepsin S 2 µM, second agent at 300 s) was “abolishes the response to the subsequent addtion of KVDGTS”.
